Experimental data taken from patent EP2245064B1 (MEDIMMUNE LIMITED, dated 2014).
Read-outs that look alike come from different tables or passages of the source.

Assays:
[1] = biological target: antibody used for epitope mapping in Example 5 (not named); assay: HTRF competition vs biotinylated human IL-4Rα/Fc for Eu-cryptate antibody
[2] = biological target: antibody used for epitope mapping in Example 5 (not named); assay: as above; remark: listed apart in the source
[3] = biological target: human IL-4Rα on TF-1 cells (human) (UniProt P24394); assay: cell-based or functional assay
[4] = biological target: T1, human IL4Rα/Fc (R and D Systems 604-4R) (human, UniProt P24394 26-232); assay: HTRF receptor-ligand competition, scFv vs biotinylated human IL4
T1 construct: Bought product; also called human IL4Rα-Fc receptor; IL-4Rα/Fc (R&D systems Cat. No. 604-4R-050)
T1 sequence (looked up): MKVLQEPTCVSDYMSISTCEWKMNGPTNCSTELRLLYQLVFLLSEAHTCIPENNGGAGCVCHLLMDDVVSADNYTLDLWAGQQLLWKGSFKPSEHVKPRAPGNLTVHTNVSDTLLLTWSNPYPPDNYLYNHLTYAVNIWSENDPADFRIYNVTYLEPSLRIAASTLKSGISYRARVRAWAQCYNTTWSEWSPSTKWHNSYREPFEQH

B1: MoD1HuD2IL-4Rα (receptor)
chain: IKVLGEPTCFSDYIRTSTCEWFLDSAVDCSSQLCLHYRLMFFEFSENLTCIPRNSASTVCVCHMEMNRPVQSDRYQMELWAEHRQLWQGSFSPSGHVKPRAPGNLTVHTNVSDTLLLTWSNPYPPDNYLYNHLTYAVNIWSENDPADFRIYNVTYLEPSLRIAASTLKSGISYRARVRAWAQCYNTTWSEWSPSTKWHNSYREPFNPAFLYKVVGAADYKDDDDKAAHHHHHHHHHH
- % inhibition at 1000nM [1]: 34%

B2: MoLoop1HuIL-4Rα (receptor)
chain: MKVLQEPTCVSDYIRTSTCEWKMNGPTNCSTELRLLYQLVFLLSEAHTCIPENNGGAGCVCHLLMDDVVSADNYTLDLWAGQQLLWKGSFKPSEHVKPRAPGNLTVHTNVSDTLLLTWSNPYPPDNYLYNHLTYAVNIWSENDPADFRIYNVTYLEPSLRIAASTLKSGISYRARVRAWAQCYNTTWSEWSPSTKWHNSYREPFNPAFLYKVVGAADYKDDDDKAAHHHHHHHHHH
- IC50 [1]: 1.9 nM

B3: MoLoop5HuIL-4Rα (receptor)
chain: MKVLQEPTCVSDYMSISTCEWKMNGPTNCSTELRLLYQLVFLLSEAHTCIPENNGGAGCVCHLLMDDVVSADNYTLDLWAGQQLLWKGSFKPSEHVKPRAPGNLTVHTNVSDTLLLTWSNPYPPDNYLYNHLTYAVNIWSENDPADFRIYNVTYLEPSLRIAASTLKSGISYRARVRAWSQILTGTWSEWSPSTKWHNSYREPFNPAFLYKVVGAADYKDDDDKAAHHHHHHHHHH
- IC50 [1]: 1.4 nM

B4: EM20 (receptor)
chain: MKVLQEPTCVSDYMSISTCEWKMNGPTNCSTELRLLYQLMFFFSENLTCIPENNGGAGCVCHLLMDDVVSADNYTLDLWAGQQLLWKGSFKPSEHVKPRAPGNLTVHTNVSDTLLLTWSNPYPPDNYLYNHLTYAVNIWSENDPADFRIYNVTYLEPSLRIAASTLKSGISYRARVRAWAQCYNTTWSEWSPSTKWHNSYREPFNPAFLYKVVGAADYKDDDDKAAHHHHHHHHHH
- IC50 [1]: 3.8 nM

B5: EM25 (receptor)
chain: MKVLQEPTCVSDYMSISTCEWKMNGPTNCSTELRLLYQLVFLLSENLTCIPENNGGAGCVCHLLMDDVVSADNYTLDLWAGQQLLWKGSFKPSEHVKPRAPGNLTVHTNVSDTLLLTWSNPYPPDNYLYNHLTYAVNIWSENDPADFRIYNVTYLEPSLRIAASTLKSGISYRARVRAWAQCYNTTWSEWSPSTKWHNSYREPFNPAFLYKVVGAADYKDDDDKAAHHHHHHHHHH
- IC50 [1]: 0.448 nM

B6: MoLoop4HuIL-4Rα (receptor)
chain: MKVLQEPTCVSDYMSISTCEWKMNGPTNCSTELRLLYQLVFLLSEAHTCIPENNGGAGCVCHLLMDDVVSADNYTLDLWAGQQLLWKGSFKPSEHVKPRAPGNLTVHTNVSDTLLLTWNNLYPSNNYLYNHLTYAVNIWSENDPADFRIYNVTYLEPSLRIAASTLKSGISYRARVRAWAQCYNTTWSEWSPSTKWHNSYREPFNPAFLYKVVGAADYKDDDDKAAHHHHHHHHHH
- IC50 [1]: 0.663 nM

B7: MoLoop3HuIL-4Rα (receptor)
chain: MKVLQEPTCVSDYMSISTCEWKMNGPTNCSTELRLLYQLVFLLSEAHTCIPENNGGAGCVCHLEMNRPVQSDRYTLDLWAGQQLLWKGSFKPSEHVKPRAPGNLTVHTNVSDTLLLTWSNPYPPDNYLYNHLTYAVNIWSENDPADFRIYNVTYLEPSLRIAASTLKSGISYRARVRAWAQCYNTTWSEWSPSTKWHNSYREPFNPAFLYKVVGAADYKDDDDKAAHHHHHHHHHH
- % inhibition at 1000nM [2]: 45%
- % inhibition at 1000nM [1]: 58%

B8: EM19 (receptor)
chain: MKVLQEPTCVSDYMSISTCEWKMNGPTNCSTELRLLYQLMFLEFSENLTCIPENNGGAGCVCHLLMDDVVSADNYTLDLWAGQQLLWKGSFKPSEHVKPRAPGNLTVHTNVSDTLLLTWSNPYPPDNYLYNHLTYAVNIWSENDPADFRIYNVTYLEPSLRIAASTLKSGISYRARVRAWAQCYNTTWSEWSPSTKWHNSYREPFNPAFLYKVVGAADYKDDDDKAAHHHHHHHHHH
- IC50 [1]: 4.5 nM

B9: EM24 (receptor)
chain: MKVLQEPTCVSDYMSISTCEWKMNGPTNCSTELRLLYQLVFFEFSEAHTCIPENNGGAGCVCHLLMDDVVSADNYTLDLWAGQQLLWKGSFKPSEHVKPRAPGNLTVHTNVSDTLLLTWSNPYPPDNYLYNHLTYAVNIWSENDPADFRIYNVTYLEPSLRIAASTLKSGISYRARVRAWAQCYNTTWSEWSPSTKWHNSYREPFNPAFLYKVVGAADYKDDDDKAAHHHHHHHHHH
- IC50 [1]: 13 nM

B10: EM22 (receptor)
chain: MKVLQEPTCVSDYMSISTCEWKMNGPTNCSTELRLLYQLMFFEFSEALTCIPENNGGAGCVCHLLMDDVVSADNYTLDLWAGQQLLWKGSFKPSEHVKPRAPGNLTVHTNVSDTLLLTWSNPYPPDNYLYNHLTYAVNIWSENDPADFRIYNVTYLEPSLRIAASTLKSGISYRARVRAWAQCYNTTWSEWSPSTKWHNSYREPFNPAFLYKVVGAADYKDDDDKAAHHHHHHHHHH
- IC50 [1]: 19 nM

B11: EM21 (receptor)
chain: MKVLQEPTCVSDYMSISTCEWKMNGPTNCSTELRLLYQLMFFELSENLTCIPENNGGAGCVCHLLMDDVVSADNYTLDLWAGQQLLWKGSFKPSEHVKPRAPGNLTVHTNVSDTLLLTWSNPYPPDNYLYNHLTYAVNIWSENDPADFRIYNVTYLEPSLRIAASTLKSGISYRARVRAWAQCYNTTWSEWSPSTKWHNSYREPFNPAFLYKVVGAADYKDDDDKAAHHHHHHHHHH
- IC50 [1]: 5.7 nM

B12: Antibody 24 (PGL) IgG (antibody, from another filing, V domains shown)
VH: QVQLVQSGAEVKKPGASVKVSCKASGYAFTSYYMHWVRQAPGQGLEWMGIINPRGGSTSYAQKFQGRVTMTRDTSTSTVYMELSSLRSEDTAVYYCARGKYWMYDWGKGTLVTVSS
VL: QSVLTQPPSVSAAPGQKVTISCSGGSSNIGNSYVSWYQQLPGTAPKLLIYDNNKRPSGIPDRFSGSKSGTSATLGITGLQTGDEADYFCGTWDTSTVWEWPFGTGTKLTVL
- IC50, IL-4 induced TF-1 cell proliferation [3]: 15.3 pM
- IC50, IL-13 induced TF-1 cell proliferation [3]: 55 pM

B13: Antibody 1 scFv (scFv, V domains shown)
VH: QVQLVQSGAEVKKPGASVKVSCKASGYAFTSYYMHWARQAPGQGLEWMGIINPSGGSTSYAQKFQGRVTMTRDTSTSTVYMELSSLRSEDTAVYYCARGKWWLDYWGKGTLVTVSS
VL: QSVLTQPPSVSAAPGQKVTISCSGGSSNIGNSYVSWYQQLPGTAPKLLIYDNNKRPSGIPDRFSGSKSGTSATLAITGLQTGDEADYYCGTWDTSLSANYVFGTGTKLTVL
- Ki [4]: 12 nM
